According to publication PMC7870846, “Incorporation of sensing modalities into de novo designed fluorescence-activating proteins” (Nature Communications, 2021):

Assays:
[1] = In vitro chromophore titration with DFHBI (fluorescence, single-binding site isotherm fit)
Procedure: Fluorescence endpoints were measured on a Synergy Neo2 hybrid multi-mode reader (BioTek) in flat bottom, black polystyrene, non-binding surface 96-well microplates (Corning 3650). In measuring chromophore-binding affinities (Fig. 1d, e), mFAP2, mFAP2a, and mFAP2b, and mFAP10 were produced by large-scale protein purification and SEC purification. Proteins were aliquoted in eight technical replicates in 200 μL final volumes to 20.0 nM final concentration in ten serial dilutions ( 10 dilution factor) of DFHBI starting from 31.6 μM DFHBI or 31.6 μM DFHBI-1T final concentrations, including an eleventh condition without chromophore. Fluorescence was excited at λex = 468 nm and fluorescence emission measured at λem = 530 nm. Background fluorescence endpoints of wells with identical chromophore concentrations but purified protein replaced with an identical volume of high-salt Tev cleavage buffer were measured, and fluorescence endpoints subtracted from those measured with protein. Background-subtracted data were averaged and the means normalized from 0 to 1 and fit to a single-binding site isotherm function using non-linear least squares fitting to obtain a fitted Kd value (Table 1), and the fit scaled to the maximum mean value (Fig. 1d, e).

[2] = Fluorescence intensity assays of mFAP variants; assay type: biochemical; conditions: neutral pH, DFHBI
Procedure: To measure fluorescence intensities of the phenolate form of chromophores, fluorescence was measured on a Synergy Neo2 hybrid multi-mode reader (BioTek) in flat bottom, black polystyrene, non-binding surface 96-well microplates (Corning 3650). Fluorescence intensity was measured in triplicate by exciting at λex = 484 nm and measuring fluorescence emission at λem = 505 nm (or λem = 511 nm for clones harboring the W27 mutation) (Supplementary Fig. 1g, h). The W27 mutation redshifts the peak emission wavelength from λem = ~505 nm to λem = ~511 nm, presumably due to the W27 indole ring donating a hydrogen bond to the imidazolinone moiety of the deprotonated state of DFHBI, which stabilizes the chromophore conjugated π–electron system in the excited state causing the redshift in emission. Fifteen microliters of small-scale purified protein[49] was combined with 185 μL of Na2HPO4-citrate (pH 7.36) buffer supplemented with 150 mM NaCl and 108 nM DFHBI for a final concentration of 100 nM DFHBI. In measuring the excitation spectra from λem = 525 nm of each clone in triplicate (Supplementary Fig. 1i), 30.0 μL of large-scale purified protein[49] was combined with 170 μL of 25.0 mM Tris (pH 8.00) supplemented with 100 mM NaCl and 914 nM DFHBI for a final concentration of 7.77 μM protein and 777 nM DFHBI. In measuring the fluorescence intensity at λex = 484 nm and λem = 509 nm of each clone in triplicate (Supplementary Fig. 1j), 30.0 μL of large-scale purified protein[49] was combined with 170 μL of 25.0 mM Tris (pH 8.00) supplemented with 100 mM NaCl and 653 nM DFHBI for a final concentration of 5.55 μM protein and 555 nM DFHBI. In measuring fluorescence intensity at λex = 468 nm and λem = 530 nm of each clone in technical triplicate (Supplementary Fig. 1k), 24.0 μL of 35.4 µM large-scale purified protein[49] was combined with 1.00 μL of 1.25 µM DFHBI or 1.00 μL of 1.25 µM DFHBI-1T (Lucerna) (from […] chromophore stock solutions dissolved in 0.5% DMSO and 99.5% high-salt Tev cleavage buffer [25.0 mM Tris, 100 mM NaCl, pH 8.00]) for final concentrations of 34.0 μM protein and 50.0 nM chromophore. The mFAP9–DFHBI complex had ~1.1-fold the fluorescence intensity of the mFAP10–DFHBI complex, and the mFAP9–DFHBI-1T complex had ~0.75-fold the fluorescence intensity of the mFAP10–DFHBI-1T complex (Supplementary Fig. 1k). In collecting fluorescence emission spectra by exciting fluorescence at λex = 484 nm and collecting fluorescence emission at λem = 495–650 nm (Supplementary Fig. 6b), and in measuring fluorescence endpoints in techincal triplicate at unique peak excitation and emission wavelengths (Supplementary Fig. 6c), 195 μL of large-scale purified protein[49] was combined with 5.00 μL of 25 mM Tris (pH 8.00) supplemented with 100 mM NaCl and 40.0 μM DFHBI for a final concentration of 10.0 μM protein and 1.00 μM DFHBI.
In measuring fluorescence intensity of small-scale purified proteins[49] (Supplementary Table 1), wells were excited at λex = 488 nm for DFHBI and DFHBI-1T and λex = 505 nm for DFHO, and fluorescence emission measured at λem = 510 nm for DFHBI and DFHBI-1T and λem = 545 nm for DFHO. […]

B1: mFAP2b: mFAP2.5 with V67I, "b" for bright (protein)
chain: SRAAQLLPGTWQVTMTNEDGQTSQGQWHFQPRSPYTMDIVAQGTISDGRPIVGYGKATVKTPDTLDIDITYPSLGNIKAQGQITMDSPTQFKWDATTKGENDFHGRLTGTLQRQE
With B1 the “higher affinity for DFHBI than DFHBI-1T” value [1] was ~ 6.1 fold, the “weaker affinity for DFHBI than the initial mFAP2 design” value [1] was ~ 10 fold and the “brighter than mFAP2.4” value [2] was ~ 1.3 fold. The “brighter than mFAP2.5” value [2] was ~ 1.2 fold.
